Experimental data reported in article PMC3240630, “Structural Analysis of the UBA Domain of X-linked Inhibitor of Apoptosis Protein Reveals Different Surfaces for Ubiquitin-Binding and Self-Association” (PLoS ONE, 2011).

What was measured:
[1] = molecular target: the molecule itself; experiment: 15N relaxation (rotational correlation time against concentration); 15N-XIAP-UBA at 0.16-1.9 mM; T1 and T2 at 298 K; non-linear fit of the rotational correlation time; dimer to monomers
[2] = molecular target: T1, human ubiquitin (mono-ubiquitin) (human, UniProt P0CG48 1-76); experiment: NMR titration; 15N-labelled XIAP-UBA (0.5 mM, about 0.3 mM at the last point, predominantly monomeric) titrated with unlabelled monoUb (to molar ratio 5.5), K48-Ub2 or LL-Ub2 (to 2.5); 1H-15N HSQC chemical shift perturbation; 298 K; 20 mM BisTris-HCl pH 6.7, 150 mM NaCl, 5 mM DTT; conditions: both partners purified
T1 construct: ubiquitin, human, the mature 76-residue protein (C-terminal diglycine Gly75-Gly76); Used unlabelled or 15N-labelled

[3] = molecular target: T2, linear-linked diubiquitin (UniProt P0CG48 1-76; P0CG48 1-76); experiment: as above; conditions: both partners purified
T2 construct: ubiquitin, mature 76-residue protein, first unit; its C-terminal Gly is joined to the N-terminal Met of the next unit; ubiquitin, mature 76-residue protein, second unit; Unlabelled; also called LL-Ub2; linear-linked Ub2

B1: XIAP-UBA (UBA domain of X-linked inhibitor of apoptosis protein, residues 365-423) (domain or fragment, human, UniProt P98170 365-423, looked up)
chain: RIDDTIFQNPMVQEAIRMGFSFKDIKKIMEEKIQISGSNYKSLEVLVADLVNAQKDSMQ
notes: PDB 2KNA holds the longer construct 357-449; Used 15N- or 13C/15N-labelled or unlabelled; The tags are separated from XIAP-UBA by a thrombin site (LVPRG); also called XIAP UBA domain; XIAP-UBA WT; source: E. coli BL21 (DE3), purified
- Kd [1]: ~900 µM
- stoichiometry N [1]: 2
- Kd [2]: 249 ± 19 µM
- Kd [3]: 59 ± 11 µM
